In publication PMC3847324, “Jun dimerization protein 2 is a critical component of the Nrf2/MafK complex regulating the response to ROS homeostasis”:

Columns and labels:
Experiment in all cases: EMSA; EMSA: 5 ug GST fusion or 10 ng IVT protein, 25 C 30 min; 5% native PAGE in 0.5x TBE at 4 C; binding buffer, salt and pH not given
IVT-MafK = IVT-MafK (rat, UniProt Q8K4B3 1-156); settings: protein: ivt; chain copies: 2; label: 32P 5' end (T4 kinase) as probe; blunt
IVT-JDP2 = molecular target: T1, IVT-JDP2 (mouse, UniProt P97875 1-163); settings: protein: ivt; chain copies: 2; label: 32P 5' end (T4 kinase) as probe; blunt
T1 sequence: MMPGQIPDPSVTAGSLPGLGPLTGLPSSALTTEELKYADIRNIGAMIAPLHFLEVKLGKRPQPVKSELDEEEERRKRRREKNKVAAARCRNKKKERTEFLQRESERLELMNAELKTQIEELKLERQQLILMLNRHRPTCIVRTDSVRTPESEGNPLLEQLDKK

GST-JDP2 = molecular target: T2, GST-JDP2 (mouse, UniProt P97875 1-163); settings: protein: recombinant; tags: GST; chain copies: 2; label: 32P 5' end (T4 kinase) as probe; blunt
T2 sequence: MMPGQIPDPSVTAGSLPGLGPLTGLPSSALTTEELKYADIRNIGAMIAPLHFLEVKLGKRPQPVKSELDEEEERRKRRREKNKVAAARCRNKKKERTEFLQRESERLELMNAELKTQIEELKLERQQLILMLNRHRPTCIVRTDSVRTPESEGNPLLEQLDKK

Measured: binding result

Chain of IVT-MafK (Q8K4B3 entry or part of it): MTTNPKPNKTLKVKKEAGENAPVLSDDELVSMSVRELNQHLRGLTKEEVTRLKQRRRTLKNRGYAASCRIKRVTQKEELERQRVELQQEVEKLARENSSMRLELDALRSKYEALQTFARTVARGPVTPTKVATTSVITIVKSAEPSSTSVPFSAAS

B1: human NQO1-ARE WT (dsDNA)
DNA 1: CAGTCACAGTGACTCAGCAGAATCT
DNA 2: AGATTCTGCTGAGTCACTGTGACTG
binds: all assays above
